Laboratory results as given in patent US20150266936A1.
Starred links: 1 amine or outer side, 2 acyl side, 3 side chain; linkers in the order of their positions; H or OH if unused. Non-standard residues stand in square brackets, D forms with d. No end group written: not given here. AO = 2-amino-3-(2-(aminooxy)acetamido)propanoic acid, O=C(CON[*:3])NC[C@H](N[*:1])C(=O)[*:2]

Columns and labels:
[1] = biological target: αvβ3, αvβ5, and α5β1 integrins on U87MG cells (human) (UniProt P06756); experiment: competition binding on U87MG cells, flow cytometry; competitor 0.25 nM Alexa488-labeled EETI 2.5F; 4 °C, 10 h
[2] = biological target: αvβ3, αvβ5, and α5β1 integrins on U87MG cells (human) (UniProt P06756); experiment: cell-based or functional assay
[3] = biological target: αvβ3, αvβ5, and α5β1 integrins on U87MG cells (human) (UniProt P06756); experiment: ratio of IC50 values, competition binding on U87MG cells
[4] = biological target: αvβ3, αvβ5, and α5β1 integrins on U87MG cells (human) (UniProt P06756); experiment: competition binding on U87MG cells, flow cytometry; competitor 5 nM Alexa488-labeled AgRP 7C; 4 °C, 10 h

B1: EETI 2.5F_AO (designed binder)
chain: GCPRPRGDNPPLTC[AO]QDSDCLAGCVCGPNGFCG
modifications: disulfide (positions not given here)
How did the IC50 [1] turn out when B1 was run?
The IC50 was 1.57 nM.

B2: EETI 2.5F (designed binder)
chain: GCPRPRGDNPPLTCKQDSDCLAGCVCGPNGFCG
With B2 as the binder, how does the Adhesion EC50 (nM), U87MG cell adhesion to fibronectin [2] read?
Its Adhesion EC50 (nM), U87MG cell adhesion to fibronectin is 180 nM.

And the inhibition of U87MG proliferation, 10 nM, 72 h (AlamarBlue) [2]?
Its inhibition of U87MG proliferation, 10 nM, 72 h (AlamarBlue) is 15%.

What about the inhibition of U87MG proliferation, 100 nM, 72 h (AlamarBlue) [2] of the same binder?
The inhibition of U87MG proliferation, 100 nM, 72 h (AlamarBlue) was 30%.

What about the inhibition of U87MG proliferation, 500 nM, 24 h (AlamarBlue) [2] of the same binder?
The inhibition of U87MG proliferation, 500 nM, 24 h (AlamarBlue) was 37%.

What about the inhibition of U87MG proliferation, 500 nM, 48 h (AlamarBlue) [2] of the same binder?
Its inhibition of U87MG proliferation, 500 nM, 48 h (AlamarBlue) is 44%.

And the inhibition of U87MG proliferation, 500 nM, 72 h (AlamarBlue) [2]?
The inhibition of U87MG proliferation, 500 nM, 72 h (AlamarBlue) was 50%.

What about the inhibition of U87MG proliferation, 1000 nM, 72 h (AlamarBlue) [2] of the same binder?
Its inhibition of U87MG proliferation, 1000 nM, 72 h (AlamarBlue) is 60%.

What about the IC50 [1] of the same binder?
The IC50 was 1.64 nM.

B3: EETI 2.5F Dimer (designed binder)
chain: GCPRPRGDNPPLTC[AO]QDSDCLAGCVCGPNGFCG
modifications: not fully specified (residue 15, bridges); ends and bridges not checked; also: homodimer: two copies joined by oxime-bonded dialdehyde linker at X15
B3 was tested. Which Adhesion EC50 (nM), U87MG cell adhesion to fibronectin [2] did it give?
Its Adhesion EC50 (nM), U87MG cell adhesion to fibronectin is 8 nM.

What about the fold more effective than the monomer in preventing U87MG cell adhesion [2] of the same binder?
The fold more effective than the monomer in preventing U87MG cell adhesion was 100 fold.

What about the fold more potent than Cilengitide at inhibiting U87MG cell proliferation [2] of the same binder?
Its fold more potent than Cilengitide at inhibiting U87MG cell proliferation is 100 fold.

What about the inhibition of U87MG proliferation, 10 nM, 72 h (AlamarBlue) [2] of the same binder?
The inhibition of U87MG proliferation, 10 nM, 72 h (AlamarBlue) was 28%.

What about the inhibition of U87MG proliferation, 100 nM, 72 h (AlamarBlue) [2] of the same binder?
The inhibition of U87MG proliferation, 100 nM, 72 h (AlamarBlue) was 52%.

And the inhibition of U87MG proliferation, 500 nM, 24 h (AlamarBlue) [2]?
The inhibition of U87MG proliferation, 500 nM, 24 h (AlamarBlue) was 53%.

And the inhibition of U87MG proliferation, 500 nM, 48 h (AlamarBlue) [2]?
Its inhibition of U87MG proliferation, 500 nM, 48 h (AlamarBlue) is 68%.

What about the inhibition of U87MG proliferation, 500 nM, 72 h (AlamarBlue) [2] of the same binder?
Its inhibition of U87MG proliferation, 500 nM, 72 h (AlamarBlue) is 69%.

What about the inhibition of U87MG proliferation, 1000 nM, 72 h (AlamarBlue) [2] of the same binder?
Its inhibition of U87MG proliferation, 1000 nM, 72 h (AlamarBlue) is 70%.

What about the fold increase of apparent binding affinity compared to the monomer [3] of the same binder?
Its fold increase of apparent binding affinity compared to the monomer is 46 fold.

And the IC50 [1]?
The IC50 was 0.036 nM.

B4: AgRP 7C Dimer (designed binder)
chain: GCVRLHESCLGQQVPCCDPAATCYCYGRGDNDLRCYC[AO]
modifications: not fully specified (residue 38, bridges); ends and bridges not checked; also: homodimer: two copies joined by oxime-bonded dialdehyde linker at X38
What does the source list for B4?
fold increase of apparent binding affinity compared to the monomer [3]: 4 fold; IC50 [4]: 3.2 nM

B5: AgRP 7C (designed binder)
chain: GCVRLHESCLGQQVPCCDPAATCYCYGRGDNDLRCYCR
modifications: not fully specified (bridges); cysteine pairing not given here
How did the IC50 [4] turn out when B5 was run?
The IC50 was 13 nM.
